Laboratory results from US20250313636A1 (PARAGON THERAPEUTICS, published 2025).
One block for each binder: values may come before it.

How the values were obtained:
[1] = biological target: T1, α4β7 integrin expressed on cells (UniProt P13612 34-1032; P26010 20-798, limits assumed); test: cell-based or functional assay
[2] = biological target: T2, α4β1 integrin expressed on cells (UniProt P13612 34-1032; P05556 21-798, limits assumed); test: flow cytometry on Ramos cells
T2 construct: whole, on cells; also called α4β1 on Ramos cells; α4β1 on HuT-78 cells
T2 sequence (P13612 34-1032 limits assumed, chain 1 of 2): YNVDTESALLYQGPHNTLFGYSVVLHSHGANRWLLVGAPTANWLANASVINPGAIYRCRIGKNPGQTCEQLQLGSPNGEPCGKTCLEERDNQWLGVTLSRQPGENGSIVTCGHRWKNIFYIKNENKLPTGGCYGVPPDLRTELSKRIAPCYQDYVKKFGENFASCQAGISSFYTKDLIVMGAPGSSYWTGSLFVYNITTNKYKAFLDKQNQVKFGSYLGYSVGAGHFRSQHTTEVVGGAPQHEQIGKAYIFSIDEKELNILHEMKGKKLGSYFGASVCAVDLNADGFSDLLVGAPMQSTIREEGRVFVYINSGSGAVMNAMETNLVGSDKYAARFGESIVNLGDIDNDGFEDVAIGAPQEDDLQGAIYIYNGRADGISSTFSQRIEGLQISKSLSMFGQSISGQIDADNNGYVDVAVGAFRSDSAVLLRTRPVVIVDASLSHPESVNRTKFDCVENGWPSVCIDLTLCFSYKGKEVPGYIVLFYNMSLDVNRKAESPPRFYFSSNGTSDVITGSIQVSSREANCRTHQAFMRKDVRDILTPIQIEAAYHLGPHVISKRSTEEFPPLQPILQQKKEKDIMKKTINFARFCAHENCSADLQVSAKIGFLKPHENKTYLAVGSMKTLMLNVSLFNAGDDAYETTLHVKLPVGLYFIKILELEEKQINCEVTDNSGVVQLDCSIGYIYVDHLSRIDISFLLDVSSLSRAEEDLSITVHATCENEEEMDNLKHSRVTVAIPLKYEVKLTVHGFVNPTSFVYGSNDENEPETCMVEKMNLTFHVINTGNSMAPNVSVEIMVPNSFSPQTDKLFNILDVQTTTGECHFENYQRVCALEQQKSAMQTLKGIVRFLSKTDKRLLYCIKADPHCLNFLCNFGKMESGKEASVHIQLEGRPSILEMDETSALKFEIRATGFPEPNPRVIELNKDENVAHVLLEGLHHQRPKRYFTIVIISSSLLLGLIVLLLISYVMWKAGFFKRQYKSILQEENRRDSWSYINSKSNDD
T2 sequence (P05556 21-798 limits assumed, chain 2 of 2): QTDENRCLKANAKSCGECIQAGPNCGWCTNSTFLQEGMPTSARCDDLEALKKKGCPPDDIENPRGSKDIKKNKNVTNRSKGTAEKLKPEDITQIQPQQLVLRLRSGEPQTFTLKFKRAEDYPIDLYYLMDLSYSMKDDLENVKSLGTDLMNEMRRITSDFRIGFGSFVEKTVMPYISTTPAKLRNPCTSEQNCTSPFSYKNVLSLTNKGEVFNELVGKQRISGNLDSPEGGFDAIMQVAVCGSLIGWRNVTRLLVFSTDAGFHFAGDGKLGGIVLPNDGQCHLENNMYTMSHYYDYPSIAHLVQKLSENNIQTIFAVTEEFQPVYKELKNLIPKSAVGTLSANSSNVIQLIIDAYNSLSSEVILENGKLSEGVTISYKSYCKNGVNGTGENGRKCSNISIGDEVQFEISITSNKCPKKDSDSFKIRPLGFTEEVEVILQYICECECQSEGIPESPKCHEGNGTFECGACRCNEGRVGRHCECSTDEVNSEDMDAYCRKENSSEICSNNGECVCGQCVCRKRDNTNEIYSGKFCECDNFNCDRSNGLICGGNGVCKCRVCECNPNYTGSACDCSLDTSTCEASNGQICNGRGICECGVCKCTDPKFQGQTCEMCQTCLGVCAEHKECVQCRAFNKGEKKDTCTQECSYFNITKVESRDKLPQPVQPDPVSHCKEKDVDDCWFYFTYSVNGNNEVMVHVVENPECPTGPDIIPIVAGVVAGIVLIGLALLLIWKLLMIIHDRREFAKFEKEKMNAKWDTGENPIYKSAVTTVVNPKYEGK
Protocol: (§1) Antibody binding to α4β7 integrin or α4β1 integrin expressed on cells was determined using FACS and two cell lines. […] The second cell line was Ramos and is known to only express α4β1. Briefly, cells were cultured and harvested according to standard vendor instructions. Cells were stained with purified antibodies at concentrations of 0 nM, 0.0064 nM, 0.032 nM, 0.16 nM, 0.8 nM, 4 nM, 20 nM, and 100 nM and incubated at 4° C. for 1 hour. Cells were subsequently stained with an Alexa Fluor 488-conjugated goat anti-human IgG secondary antibody at a 1:1000 dilution. Cells were incubated 4° C. for 1 hour, protected from light. Cells were then washed and the MFI of cells in each well were recorded by FACS using a flow cytometer. Subsequent data were analyzed using GraphPad Prism. […] On the other hand, an anti-α4 antibody tested binds to both cell lines.

[3] = biological target: T1, α4β7 integrin expressed on cells; test: flow cytometry on RPMI-8866 cells (α4β7 only)
Protocol: as §1

[4] = biological target: T3, recombinant human α4β7 integrin (human, UniProt P13612 34-977; P26010 20-723, limits assumed); test: SPR, antibody captured on anti-human Fc CM5 chip, recombinant human α4β7 integrin as analyte, 25 °C, 1:1 model
T3 sequence (P13612 34-977 limits assumed, chain 1 of 2): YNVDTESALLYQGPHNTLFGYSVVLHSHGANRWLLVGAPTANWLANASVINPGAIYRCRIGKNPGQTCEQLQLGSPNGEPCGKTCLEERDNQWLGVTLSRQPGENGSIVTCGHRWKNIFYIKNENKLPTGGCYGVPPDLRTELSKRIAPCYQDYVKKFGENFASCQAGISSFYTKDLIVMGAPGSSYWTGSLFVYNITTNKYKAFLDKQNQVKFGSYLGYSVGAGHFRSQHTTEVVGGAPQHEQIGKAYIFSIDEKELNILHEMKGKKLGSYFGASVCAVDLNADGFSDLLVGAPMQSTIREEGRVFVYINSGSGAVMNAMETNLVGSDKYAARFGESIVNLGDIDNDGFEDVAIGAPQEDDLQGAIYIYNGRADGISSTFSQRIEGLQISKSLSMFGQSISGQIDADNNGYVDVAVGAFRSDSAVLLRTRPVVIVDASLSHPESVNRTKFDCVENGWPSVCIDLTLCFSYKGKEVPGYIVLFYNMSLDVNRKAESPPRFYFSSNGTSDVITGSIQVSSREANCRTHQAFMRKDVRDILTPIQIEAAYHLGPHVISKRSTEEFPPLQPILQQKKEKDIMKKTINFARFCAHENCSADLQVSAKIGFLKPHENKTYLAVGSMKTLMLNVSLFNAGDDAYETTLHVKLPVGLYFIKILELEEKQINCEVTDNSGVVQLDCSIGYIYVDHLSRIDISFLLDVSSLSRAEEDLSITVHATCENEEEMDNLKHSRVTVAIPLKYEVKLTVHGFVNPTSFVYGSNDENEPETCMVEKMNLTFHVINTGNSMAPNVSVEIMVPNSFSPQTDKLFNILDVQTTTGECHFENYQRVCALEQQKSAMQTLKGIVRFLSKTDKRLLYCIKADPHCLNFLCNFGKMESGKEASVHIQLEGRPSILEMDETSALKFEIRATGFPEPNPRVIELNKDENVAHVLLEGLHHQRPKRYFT
T3 sequence (P26010 20-723 limits assumed, chain 2 of 2): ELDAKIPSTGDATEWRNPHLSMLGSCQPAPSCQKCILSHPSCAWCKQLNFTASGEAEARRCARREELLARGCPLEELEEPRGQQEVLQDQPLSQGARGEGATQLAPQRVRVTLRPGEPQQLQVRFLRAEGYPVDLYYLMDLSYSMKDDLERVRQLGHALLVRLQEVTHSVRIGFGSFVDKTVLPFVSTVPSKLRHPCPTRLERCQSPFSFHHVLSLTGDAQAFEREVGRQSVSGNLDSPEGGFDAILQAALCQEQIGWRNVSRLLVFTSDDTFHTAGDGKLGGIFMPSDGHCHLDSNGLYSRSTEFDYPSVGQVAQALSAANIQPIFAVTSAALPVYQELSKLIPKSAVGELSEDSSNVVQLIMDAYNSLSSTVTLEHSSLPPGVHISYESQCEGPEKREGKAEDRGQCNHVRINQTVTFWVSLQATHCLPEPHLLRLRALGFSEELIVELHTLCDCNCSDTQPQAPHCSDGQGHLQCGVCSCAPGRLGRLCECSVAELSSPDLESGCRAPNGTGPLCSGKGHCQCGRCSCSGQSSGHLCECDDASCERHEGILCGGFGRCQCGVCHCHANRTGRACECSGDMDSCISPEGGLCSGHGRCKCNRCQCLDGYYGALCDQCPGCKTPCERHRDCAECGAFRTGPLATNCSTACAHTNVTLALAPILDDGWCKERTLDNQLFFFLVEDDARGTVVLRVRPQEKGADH
Protocol: (§2) Following a stabilization period in running buffer, antibodies previously diluted to 1-1.5 μg/mL were captured on the chip for 30 seconds at a flow rate of 10 μL/min. Subsequently, recombinant human α4β7 integrin was prepared at concentrations of 1.563 nM, 3.125 nM, 6.25 nM, 12.5 nM, 25 nM, 50 nM and 100 nM and injected at a flow rate of 30 μL/min for 180 seconds followed by a dissociation phase with just running buffer at a flow rate of 30 μL/min for 1200 seconds. Samples were injected in a multi-cycle manner over freshly captured mAb, by regenerating the capture surfaces with injection of 10 mM Glycine, pH 1.5. The data was processed and analyzed with SPR analysis software, where sensorgrams were fit to a 1:1 binding model to determine the apparent association (ka) and dissociation rate constants (kd). Their ratio provided the apparent equilibrium dissociation constant or affinity constant (KD=kd/ka).

[5] = biological target: T3, recombinant human α4β7 integrin; test: SPR, antibody captured on anti-human Fc CM5 chip, recombinant human α4β7 integrin as analyte, 25 °C, 1:1 model; apparent KD
Protocol: as §2

T1 sequence (P13612 34-1032 limits assumed, chain 1 of 2): as the sequence (P13612 34-1032 limits assumed, chain 1 of 2) above
T1 sequence (P26010 20-798 limits assumed, chain 2 of 2): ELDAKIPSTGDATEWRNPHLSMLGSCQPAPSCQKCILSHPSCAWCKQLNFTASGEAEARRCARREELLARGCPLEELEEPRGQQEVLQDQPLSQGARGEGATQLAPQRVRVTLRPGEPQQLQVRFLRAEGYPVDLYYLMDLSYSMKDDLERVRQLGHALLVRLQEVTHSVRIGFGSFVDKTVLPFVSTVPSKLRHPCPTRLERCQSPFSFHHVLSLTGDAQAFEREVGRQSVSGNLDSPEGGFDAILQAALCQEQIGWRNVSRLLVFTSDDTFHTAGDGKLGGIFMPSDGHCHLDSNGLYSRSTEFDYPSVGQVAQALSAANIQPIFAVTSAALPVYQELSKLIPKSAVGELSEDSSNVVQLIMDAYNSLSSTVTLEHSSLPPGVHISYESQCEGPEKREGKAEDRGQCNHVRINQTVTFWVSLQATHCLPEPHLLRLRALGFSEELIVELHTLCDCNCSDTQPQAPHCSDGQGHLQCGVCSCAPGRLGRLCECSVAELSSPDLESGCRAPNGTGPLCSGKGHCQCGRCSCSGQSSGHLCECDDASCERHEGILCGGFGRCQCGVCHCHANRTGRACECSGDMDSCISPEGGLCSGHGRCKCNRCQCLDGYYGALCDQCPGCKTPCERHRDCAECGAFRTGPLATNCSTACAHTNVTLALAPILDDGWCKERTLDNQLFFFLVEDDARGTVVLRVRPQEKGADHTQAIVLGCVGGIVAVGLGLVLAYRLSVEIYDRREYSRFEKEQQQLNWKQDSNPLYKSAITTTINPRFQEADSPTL

MAdCAM-1 Adhesion Inhibition IC50 [1]: 0.087 nM
EC50 [3]: 0.2 nM
koff [4]: 0.000466 s⁻¹
kon [4]: 68500 M⁻¹ s⁻¹
Kd [5]: 6.79 nM
B1: Antibody 1 (antibody, V domains shown)
VH: EVQLVQSGAEVKKPGSSVKVSCKASGGTFTSYWMHWVRQAPGQGLEWMGEIDPSESNTNYNQKFKGRATITADISTSTAYMELSSLRSEDTAVYYCARGGYDGWDYAIDYWGQGTLVTVSS
VL: DVVMTQTPLSLPVTPGQPASISCRSSQSLAKSYGNTYLSWYLQKPGQSPQLLIYGISNRFSGVPDRFSGSGSGTDFTLKISRVEAEDVGVYYCLQGTHQPYTFGQGTKLEIK
notes: It has a human Fc: captured by anti-human Fc in SPR, detected by anti-human IgG in FACS
binding result [2]: no binding (tested: 100 nM (highest concentration tested))

MAdCAM-1 Adhesion Inhibition IC50 [1]: 0.15 nM
EC50 [3]: 0.27 nM
koff [4]: 0.000118 s⁻¹
kon [4]: 56400 M⁻¹ s⁻¹
Kd [5]: 2.1 nM
B2: Antibody 2 (antibody, V domains shown)
VH: EVQLVESGGGVVQPGRSLRLSCAASGYTFTSYWMHWVRQAPGKGLEWIGEIDPSESNTNYNQKFKGRATISVDNSKNTAYLQMSSLRAEDTAVYYCARGGYDGWDYAIDYWGQGTLVTVSS
VL: B1 VL
notes: as for B1
binding result [2]: no binding (tested: 100 nM (highest concentration tested))
